Square brackets hold non-standard residues; d marks the D form. Ends that are not written are not given here. * marks the point of attachment. Benzoyl(3-OMe) = COc1cccc(C(=O)*)c1; Benzoyl(4-OMe) = COc1ccc(C(=O)*)cc1; d2Thi = N[C@H](Cc1cccs1)C(=O)O; dNal = D-naphthylalanine
B1: SQW-9 (peptide)
peptide: {Benzoyl(3-OMe)}-RRARPKL-NH2
SMILES: COc1cccc(C(=O)N[C@@H](CCCNC(=N)N)C(=O)N[C@@H](CCCNC(=N)N)C(=O)N[C@@H](C)C(=O)N[C@@H](CCCNC(=N)N)C(=O)N2CCC[C@H]2C(=O)N[C@@H](CCCCN)C(=O)N[C@@H](CC(C)C)C(N)=O)c1
B2: S-163 (peptide)
peptide: {Benzoyl(4-OMe)}-RKLL[d2Thi]A[dL]-NH2
SMILES: COc1ccc(C(=O)N[C@@H](CCCNC(=N)N)C(=O)N[C@@H](CCCCN)C(=O)N[C@@H](CC(C)C)C(=O)N[C@@H](CC(C)C)C(=O)N[C@H](Cc2cccs2)C(=O)N[C@@H](C)C(=O)N[C@H](CC(C)C)C(N)=O)cc1
B3: S-117 (peptide)
peptide: {Benzoyl(4-OMe)}-RKLL[dW]I[dL]-NH2
SMILES: CC[C@H](C)[C@H](NC(=O)[C@@H](Cc1c[nH]c2ccccc12)NC(=O)[C@H](CC(C)C)NC(=O)[C@H](CC(C)C)NC(=O)[C@H](CCCCN)NC(=O)[C@H](CCCNC(=N)N)NC(=O)c1ccc(OC)cc1)C(=O)N[C@H](CC(C)C)C(N)=O
B4: S-165 (peptide)
peptide: {Benzoyl(4-OMe)}-RKLA[d2Thi]I[dL]-NH2
SMILES: CC[C@H](C)[C@H](NC(=O)[C@@H](Cc1cccs1)NC(=O)[C@H](C)NC(=O)[C@H](CC(C)C)NC(=O)[C@H](CCCCN)NC(=O)[C@H](CCCNC(=N)N)NC(=O)c1ccc(OC)cc1)C(=O)N[C@H](CC(C)C)C(N)=O
B5: S-167 (peptide)
peptide: {Benzoyl(4-OMe)}-AKLL[d2Thi]I[dL]-NH2
SMILES: CC[C@H](C)[C@H](NC(=O)[C@@H](Cc1cccs1)NC(=O)[C@H](CC(C)C)NC(=O)[C@H](CC(C)C)NC(=O)[C@H](CCCCN)NC(=O)[C@H](C)NC(=O)c1ccc(OC)cc1)C(=O)N[C@H](CC(C)C)C(N)=O
B6: S-166 (peptide)
peptide: {Benzoyl(4-OMe)}-RALL[d2Thi]I[dL]-NH2
SMILES: CC[C@H](C)[C@H](NC(=O)[C@@H](Cc1cccs1)NC(=O)[C@H](CC(C)C)NC(=O)[C@H](CC(C)C)NC(=O)[C@H](C)NC(=O)[C@H](CCCNC(=N)N)NC(=O)c1ccc(OC)cc1)C(=O)N[C@H](CC(C)C)C(N)=O
B7: SQW-8 (peptide)
peptide: {Benzoyl(3-OMe)}-RAIRPKL-NH2
SMILES: CC[C@H](C)[C@H](NC(=O)[C@H](C)NC(=O)[C@H](CCCNC(=N)N)NC(=O)c1cccc(OC)c1)C(=O)N[C@@H](CCCNC(=N)N)C(=O)N1CCC[C@H]1C(=O)N[C@@H](CCCCN)C(=O)N[C@@H](CC(C)C)C(N)=O
B8: SQW-4 (peptide)
peptide: {Benzoyl(4-OMe)}-[dR][dR]I[dR]P[dK][dL]-NH2
SMILES: CC[C@H](C)[C@H](NC(=O)[C@@H](CCCNC(=N)N)NC(=O)[C@@H](CCCNC(=N)N)NC(=O)c1ccc(OC)cc1)C(=O)N[C@H](CCCNC(=N)N)C(=O)N1CCC[C@H]1C(=O)N[C@H](CCCCN)C(=O)N[C@H](CC(C)C)C(N)=O
B9: S-164 (peptide)
peptide: {Benzoyl(4-OMe)}-RKLL[dA]I[dL]-NH2
SMILES: CC[C@H](C)[C@H](NC(=O)[C@@H](C)NC(=O)[C@H](CC(C)C)NC(=O)[C@H](CC(C)C)NC(=O)[C@H](CCCCN)NC(=O)[C@H](CCCNC(=N)N)NC(=O)c1ccc(OC)cc1)C(=O)N[C@H](CC(C)C)C(N)=O
B10: SQW-2 (peptide)
peptide: {Benzoyl(4-OMe)}-RRI[dR]P[dK][dL]-NH2
SMILES: CC[C@H](C)[C@H](NC(=O)[C@H](CCCNC(=N)N)NC(=O)[C@H](CCCNC(=N)N)NC(=O)c1ccc(OC)cc1)C(=O)N[C@H](CCCNC(=N)N)C(=O)N1CCC[C@H]1C(=O)N[C@H](CCCCN)C(=O)N[C@H](CC(C)C)C(N)=O
B11: Ac-Arg-Tyr-Tyr-Arg-D-Trp-Lys-NH2 (peptide)
peptide: Ac-RYYR[dW]K-NH2
SMILES: CC(=O)N[C@@H](CCCNC(=N)N)C(=O)N[C@@H](Cc1ccc(O)cc1)C(=O)N[C@@H](Cc1ccc(O)cc1)C(=O)N[C@@H](CCCNC(=N)N)C(=O)N[C@H](Cc1c[nH]c2ccccc12)C(=O)N[C@@H](CCCCN)C(N)=O
B12: SQW-7 (peptide)
peptide: {Benzoyl(3-OMe)}-ARIRPKL-NH2
SMILES: CC[C@H](C)[C@H](NC(=O)[C@H](CCCNC(=N)N)NC(=O)[C@H](C)NC(=O)c1cccc(OC)c1)C(=O)N[C@@H](CCCNC(=N)N)C(=O)N1CCC[C@H]1C(=O)N[C@@H](CCCCN)C(=O)N[C@@H](CC(C)C)C(N)=O
B13: S-162 (peptide)
peptide: {Benzoyl(4-OMe)}-RKLL[d2Thi]I[dA]-NH2
SMILES: CC[C@H](C)[C@H](NC(=O)[C@@H](Cc1cccs1)NC(=O)[C@H](CC(C)C)NC(=O)[C@H](CC(C)C)NC(=O)[C@H](CCCCN)NC(=O)[C@H](CCCNC(=N)N)NC(=O)c1ccc(OC)cc1)C(=O)N[C@H](C)C(N)=O
B14: S-116 (peptide)
peptide: {Benzoyl(4-OMe)}-RKLL[dY]I[dL]-NH2
SMILES: CC[C@H](C)[C@H](NC(=O)[C@@H](Cc1ccc(O)cc1)NC(=O)[C@H](CC(C)C)NC(=O)[C@H](CC(C)C)NC(=O)[C@H](CCCCN)NC(=O)[C@H](CCCNC(=N)N)NC(=O)c1ccc(OC)cc1)C(=O)N[C@H](CC(C)C)C(N)=O
B15: S-160 (peptide)
peptide: {Benzoyl(4-OMe)}-RKAL[d2Thi]I[dL]-NH2
SMILES: CC[C@H](C)[C@H](NC(=O)[C@@H](Cc1cccs1)NC(=O)[C@H](CC(C)C)NC(=O)[C@H](C)NC(=O)[C@H](CCCCN)NC(=O)[C@H](CCCNC(=N)N)NC(=O)c1ccc(OC)cc1)C(=O)N[C@H](CC(C)C)C(N)=O
B16: SQW-3 (peptide)
peptide: {Benzoyl(4-OMe)}-R[dR]I[dR]P[dK][dL]-NH2
SMILES: CC[C@H](C)[C@H](NC(=O)[C@@H](CCCNC(=N)N)NC(=O)[C@H](CCCNC(=N)N)NC(=O)c1ccc(OC)cc1)C(=O)N[C@H](CCCNC(=N)N)C(=O)N1CCC[C@H]1C(=O)N[C@H](CCCCN)C(=O)N[C@H](CC(C)C)C(N)=O
B17: S-118 (peptide)
peptide: {Benzoyl(4-OMe)}-AKLL[d2Thi]I[dL]-NH2
SMILES: CC[C@H](C)[C@H](NC(=O)[C@@H](Cc1cccs1)NC(=O)[C@H](CC(C)C)NC(=O)[C@H](CC(C)C)NC(=O)[C@H](CCCCN)NC(=O)[C@H](C)NC(=O)c1ccc(OC)cc1)C(=O)N[C@H](CC(C)C)C(N)=O
B18: p-Anisoyl-Arg-Tyr-Tyr-Arg-D-Trp-Lys-NH2 (peptide)
peptide: {Benzoyl(4-OMe)}-RYYR[dW]K-NH2
SMILES: COc1ccc(C(=O)N[C@@H](CCCNC(=N)N)C(=O)N[C@@H](Cc2ccc(O)cc2)C(=O)N[C@@H](Cc2ccc(O)cc2)C(=O)N[C@@H](CCCNC(=N)N)C(=O)N[C@H](Cc2c[nH]c3ccccc23)C(=O)N[C@@H](CCCCN)C(N)=O)cc1
B19: SQW-10 (peptide)
peptide: {Benzoyl(3-OMe)}-RRIAPKL-NH2
SMILES: CC[C@H](C)[C@H](NC(=O)[C@H](CCCNC(=N)N)NC(=O)[C@H](CCCNC(=N)N)NC(=O)c1cccc(OC)c1)C(=O)N[C@@H](C)C(=O)N1CCC[C@H]1C(=O)N[C@@H](CCCCN)C(=O)N[C@@H](CC(C)C)C(N)=O
B20: mystixin-7 (S-21) (peptide)
peptide: {Benzoyl(4-OMe)}-RKLL[d2Thi]I[dL]-NH2
SMILES: CC[C@H](C)[C@H](NC(=O)[C@@H](Cc1cccs1)NC(=O)[C@H](CC(C)C)NC(=O)[C@H](CC(C)C)NC(=O)[C@H](CCCCN)NC(=O)[C@H](CCCNC(=N)N)NC(=O)c1ccc(OC)cc1)C(=O)N[C@H](CC(C)C)C(N)=O
B21: SQW-11 (peptide)
peptide: {Benzoyl(3-OMe)}-RRIRAKL-NH2
SMILES: CC[C@H](C)[C@H](NC(=O)[C@H](CCCNC(=N)N)NC(=O)[C@H](CCCNC(=N)N)NC(=O)c1cccc(OC)c1)C(=O)N[C@@H](CCCNC(=N)N)C(=O)N[C@@H](C)C(=O)N[C@@H](CCCCN)C(=O)N[C@@H](CC(C)C)C(N)=O

The binders below were run against MC receptor endogenous to Xenopus laevis melanophores (Xenopus laevis) (assay: cell-based or functional assay).

MCR IC50 nM: antagonism of α-MSH (600 pM) darkening of frog melanophores	IC50 in the frog MCR assay	MCR Antagonism IC50 nM In Xenopus	IC50 nM in Frog Melanophore Assay	Binder
155 nM				B1
	> 10000 nM			QGKRPWIL (peptide, UniProt P07198 74-81, looked up, ends and bridges not checked) [xenopsin]
		234 nM		B2
		22 nM		B3
		282 nM		B4
		1200 nM		B5
			1050 nM	Ac-RYYRWK-NH2 [Ac-Arg-Tyr-Tyr-Arg-Trp-Lys-NH2]
		1200 nM		B6
		166 nM		{Benzoyl(4-OMe)}-RKLL[dNal]I[dL]-NH2 [S-114]
75 nM				B7
17 nM				B8
		26 nM		B9
114 nM				B10
			867 nM	B11
110 nM				B12
		43 nM		B13
		77 nM		B14
		197 nM		B15
	> 10000 nM			QGPPISIDLSLELLRKMIEIEKQEKEKQQAANNRLLLDTI (peptide, UniProt P01144 1-40, looked up) [sauvagine]
156 nM				B16
	10000 nM			SEEPPISLDLTFHLLREVLEMARAEQLAQQAHSNRKLMEII (peptide, UniProt P06850 154-194, looked up) [human CRH]
		96 nM		B17
			175 nM	B18
187 nM				B19
		237 nM		B20
188 nM				B21
